Data on 3 molecules can be found in CN114984227A (BIO THERA SOLUTIONS LTD, dated 2022).

The target of the assay is T1, 人TIGIT (TIGIT-Jurkat细胞表面) (human, UniProt Q495A1 22-244).
T1 construct: whole, on cells
T1 sequence (looked up): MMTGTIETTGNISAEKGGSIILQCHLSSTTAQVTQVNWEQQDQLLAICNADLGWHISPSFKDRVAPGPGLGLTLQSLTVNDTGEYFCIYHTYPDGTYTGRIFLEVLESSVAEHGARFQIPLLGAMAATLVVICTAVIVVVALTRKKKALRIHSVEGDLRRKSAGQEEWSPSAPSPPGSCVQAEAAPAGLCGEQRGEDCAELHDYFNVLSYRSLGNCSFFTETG
The assay can be described thus: flow cytometry competition: blocking of PVR-Fc-bio (12.5 nM) binding to TIGIT-Jurkat cells. For orientation: In flow cytometry, cells or beads pass a laser one at a time.

B1: 参照抗体Tiragolumab (antibody, V domains shown)
VH: EVQLQQSGPGLVKPSQTLSLTCAISGDSVSSNSAAWNWIRQSPSRGLEWLGKTYYRFKWYSDYAVSVKGRITINPDTSKNQFSLQLNSVTPEDTAVFYCTRESTTYDLLAGPFDYWGQGTLVTVSS
VL: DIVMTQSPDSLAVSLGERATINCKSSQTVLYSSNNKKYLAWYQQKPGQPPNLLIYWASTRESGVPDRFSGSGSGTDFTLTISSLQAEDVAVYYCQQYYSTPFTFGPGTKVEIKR
B1 returned an IC50 of 2.82 nM.

B2: 抗体h10D8OF (antibody, human IgG1, kappa, V domains shown)
VH: QVQLVESGGGVVQPGRSLRLDCKASGFTFSSYGMSWVRQAPGKGLELVATINSNGGSTYYPDSVKGRFTISRDNSKNTLFLQMNSLRAEDTAVYYCARLGTGTLGFAYWGQGTLVTVSS
VL: EIVMTQSPATLSLSPGERATLSCKASQDVKTAVSWYQQKPGQAPRLLIYWASTRATGIPARFSGSGSGTDYTLTISSLEPEDFAVYYCQQHYSTPWTFGQGTKVEIKR
notes: also called 抗TIGIT抗体
B2 yielded a half-maximal inhibitory concentration (IC50) of 0.441 nM.

B3: 抗体h10D8OFKF (antibody, human IgG1, kappa, V domains shown)
VH: QVQLVESGGGVVQPGRSLRLDCKASGFTFSSYGMSWVRQAPGKGLELVATINSNGGSTYYPDSVKGRFTISRDNSKNTLFLQMNSLRAEDTAVYYCARLGTGTLGFAYWGQGTLVTVSS
VL: EIVMTQSPATLSLSPGERATLSCKASQDVKTAVSWYQQKPGQAPRLLIYWASTRATGIPARFSGSGSGTDYTLTISSLEPEDFAVYYCQQHYSTPWTFGQGTKVEIKR
notes: also called 抗TIGIT抗体
The molecule B3 had an IC50 of 0.742 nM.

A word on the IC50: it is the concentration that gives 50% inhibition. A lower IC50 goes with higher potency.
